Laboratory results as given in patent US20230212554A1 (published 2023).
Residue numbers refer to the chain shown, from its start.

B1: NP8 (antibody, V domains shown)
VH: EVQLVESGGGLVQPGGSLRLSCAASGFTINSFGIHWVRQAPGKGLEWVAGIGPFGGSTFYADSVKGRFTISADTSKNTAYLQMNSLRAEDTAVYYCARGFYWFDYWGQGTLVTVSS
VL: DIQMTQSPSSLSASVGDRVTITCRASQDVDDSVAWYQQKPGKAPKLLIYWTRYLYSGVPSRFSGSGSGTDFTLTISSLQPEDFATYYCQQGYNYPLTFGQGTKVEIKR
B2: NP14 (antibody, V domains shown)
VH: EVQLVESGGGLVQPGGSLRLSCAASGFTIDNGGIHWVRQAPGKGLEWVASIWPSWGSTSYADSVKGRFTISADTSKNTAYLQMNSLRAEDTAVYYCARFNFGVFGVMDYWGQGTLVTVSS
VL: B1 VL with D31N, S32D, W50G, T51P, Y53G, G91Y, Y92S, N93S, Y94W
B3: NP9 (antibody, V domains shown)
VH: EVQLVESGGGLVQPGGSLRLSCAASGFTINNGWIHWVRQAPGKGLEWVAGIGPYWGFTSYADSVKGRFMISADTSKNTAYLQMNSLRAEDTAVYYCARFDSDHDHHYSYYYYYDNGYMDYWGQGTLVTVSS
VL: B1 VL with D30W, D31F, W50G, R52T, Y53S, G91Y, Y92F
B4: NP13 (antibody, V domains shown)
VH: EVQLVESGGGLVQPGGSLRLSCAASGFTINNYGIHWVRQAPGKGLEWVASIGPYGGSTYYADSVKGRFTISADTSKNTAYLQMNSLRAEDTAVYYCARFGYFNWLDMDYWGQGTLVTVSS
VL: DIQMTQSPSSLSASVGDRVTITCRASQDVGYWVAWYQQKPGKAPKLLISSASGLYSGVPSRFSGSGSGTDFTLTISSLQPEDFATYYCQQGWDWPITFGQGTKVEIKR
B5: NP4 (antibody, V domains shown)
VH: EVQLVESGGGLVQPGGSLRLSCAASGFTISNSSIHWVRQAPGKGLEWVAGIGPSGGYTFYADSVKGRFTISADTSKNTAYLQMNSLRAEDTAVYYCARFHSHNSYYSYSHYGYMDYWGQGTLVTVSS
VL: B4 VL with Y31W, W32G, S50G, A51P, G53S, G91Y, W92F, D93N, W94Y

Biological target: NPA3 (influenza A virus A/Aalborg/INS132/2009 …, UniProt P68042 1-489)
Experiment: ELISA on recombinant NP

Binder | EC50 [nM]
B1 | 0.07
B2 | 19.7
B3 | 4.38
B4 | 9.36
B5 | 10.1
